Measurements as given in the supplement of paper PMC7125110.
± gives the standard error. Fewer inactive variants are shown than the library holds.

B1: glmS ribozyme (parent)
chain: AUAAAAGCGCCAGAACUACAGAAAUGUAGUUGACGAGGAGGAGGUUUAUCGAAUUUUCGGCGGAUGCCUCCAAA

Experiments:
Details in all cases: with glucosamine-6-phosphate
glucosamine-6-phosphate [1] = variants of: B1; experiment: self-cleavage kobs at 640 uM GlcN6P; higher = faster cleavage; RNA array
Procedure, shortened: (§1)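 Tracking of barcoded ribozyme variants used a hybridised Cy3 probe at 37 °C, after in situ transcription by E. coli RNA polymerase on sequenced MiSeq chips. The flowed solution held 40 μM to 10 mM glucosamine-6-phosphate in HEPES/KCl/Mg(OAc)2 buffer, and imaging ran over ~14 h. kobs was taken from exponential decay fits of normalised per-tile medians, and kcat and KM from weighted Michaelis–Menten fits.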

glucosamine-6-phosphate [2] = variants of: B1; experiment: self-cleavage kobs at 2500 uM GlcN6P; higher = faster cleavage; RNA array
Procedure, shortened: as §1

glucosamine-6-phosphate [3] = variants of: B1; experiment: self-cleavage kobs at 160 uM GlcN6P; higher = faster cleavage; RNA array
Procedure, shortened: as §1

glucosamine-6-phosphate [4] = variants of: B1; experiment: self-cleavage kobs at 10000 uM GlcN6P; higher = faster cleavage; RNA array
Procedure, shortened: as §1

Variant | self-cleavage kobs at 640 uM GlcN6P (glucosamine-6-phosphate [1]) [s⁻¹] | self-cleavage kobs at 2500 uM GlcN6P (glucosamine-6-phosphate [2]) [s⁻¹] | self-cleavage kobs at 160 uM GlcN6P (glucosamine-6-phosphate [3]) [s⁻¹] | self-cleavage kobs at 10000 uM GlcN6P (glucosamine-6-phosphate [4]) [s⁻¹]
C58U C67U U69A | 6.03e-05 ± 2.7e-05 | 0.000214 ± 9e-05 |  | 
G7A A48G A64U C70U | < 1e-05 |  |  | 
G38C G43A A64G | < 1e-05 |  |  | 
G13A A15C G60U | < 1e-05 |  |  | 
C11G A15C G32U A33C C50U C71A | 0.000149 ± 4e-05 |  |  | 
G7U G40U C50G | < 1e-05 | < 1e-05 |  | 
A39U A53C C71A | 8.85e-05 ± 1.7e-05 | 0.000186 ± 5.3e-05 |  | 
U45G G51U | < 1e-05 |  | < 1e-05 | < 1e-05
C8G G13C G59A U69G | < 1e-05 |  |  | 
A6G G38U | < 1e-05 | < 1e-05 |  | < 1e-05
U31C G32A U55A | 0.000149 ± 2.6e-05 | 0.000644 ± 0.00017 |  | 
C16A A36G U65G C71U | < 1e-05 |  |  | 
C8U U30G U55C | < 1e-05 | < 1e-05 |  | 
C61U C67G | < 1e-05 |  |  | 
C16A G60U U69G | < 1e-05 |  |  | 
A12G G37C U57A | < 1e-05 | < 1e-05 |  | 
A15C G44C U56C | < 1e-05 |  |  | 
G9C U30G U45A |  |  | < 1e-05 | 
A15C A36G U55A | < 1e-05 | < 1e-05 |  | 
G35U A39U U45G U46C | < 1e-05 | < 1e-05 |  | 
A6G G51C A53U C67U | < 1e-05 |  |  | 
C8A U49G C68G | 0.000875 ± 0.00033 |  |  | 

Variant | self-cleavage kobs at 640 uM GlcN6P (glucosamine-6-phosphate [1]) [s⁻¹] | self-cleavage kobs at 2500 uM GlcN6P (glucosamine-6-phosphate [2]) [s⁻¹] | self-cleavage kobs at 160 uM GlcN6P (glucosamine-6-phosphate [3]) [s⁻¹] | self-cleavage kobs at 10000 uM GlcN6P (glucosamine-6-phosphate [4]) [s⁻¹]
C10G G38A C58G A64C | 0.000102 ± 4.5e-05 |  |  | 
G41U A52C C71A | < 1e-05 | < 1e-05 |  | 
A6G A36C G38C | < 1e-05 |  |  | < 1e-05
A36C U46A |  | < 1e-05 | < 1e-05 | < 1e-05
A15G A48G | 4.16e-05 ± 1.4e-05 | 0.000216 ± 4e-05 |  | 8.59e-05 ± 1.3e-05
A39G C61G A64C | < 1e-05 | < 1e-05 |  | 
G9A G41A A53U | < 1e-05 | < 1e-05 |  | 
A6G U31G G35A U65C | < 1e-05 | < 1e-05 |  | 
G63C U69G | 5.78e-05 ± 2.2e-05 |  |  | 
G13U U56G C70G | 6.47e-05 ± 3.1e-05 | 4.09e-05 ± 1.9e-05 |  | 
A15U G38U A39C G41U U49G C70G C71G | < 1e-05 |  |  | 
G40U U46G U47G U55A G63U | < 1e-05 | < 1e-05 |  | 
U30G U55A | 0.0024 ± 0.00049 | 0.00295 ± 0.00084 |  | 
G13C A36U G59A | < 1e-05 |  |  | 
A36U A39G | < 1e-05 |  |  | 
A12U G40C C61A | < 1e-05 |  |  | 
A14G U45G C50G C68G | < 1e-05 |  |  | 
G35C G41A U49A C58G C71U | < 1e-05 |  |  | 
A15G G43U A48U C50U | < 1e-05 |  |  | 
G7A G44C C50U | < 1e-05 | < 1e-05 |  | 
G29C U55G C71A | 0.000503 ± 0.00015 | 5.43e-05 ± 1.3e-05 |  | 
G38C G44U G51C A52C C71U | < 1e-05 |  |  | 

Variant | self-cleavage kobs at 640 uM GlcN6P (glucosamine-6-phosphate [1]) [s⁻¹] | self-cleavage kobs at 2500 uM GlcN6P (glucosamine-6-phosphate [2]) [s⁻¹] | self-cleavage kobs at 160 uM GlcN6P (glucosamine-6-phosphate [3]) [s⁻¹] | self-cleavage kobs at 10000 uM GlcN6P (glucosamine-6-phosphate [4]) [s⁻¹]
C11G A14U A52U C68G | 0.000115 ± 3.6e-05 |  |  | 
C16A C50G G62A A64U | 6.11e-05 ± 2.7e-05 | 9.04e-05 ± 3.5e-05 |  | 
G9C A39U G40U | < 1e-05 | < 1e-05 |  | 
C16A G59U G60A | < 1e-05 |  |  | 
C16A G44C U54C | < 1e-05 |  |  | 
A28C A33U G59U C61U | < 1e-05 |  |  | 
C8A G32C | < 1e-05 | < 1e-05 |  | < 1e-05
A12C G32C G62A G63U | < 1e-05 | < 1e-05 |  | 
C8G G32U G44C | < 1e-05 |  |  | 
C34G U65G | < 1e-05 | < 1e-05 |  | < 1e-05
C8A A14G G29A A36U | < 1e-05 | < 1e-05 |  | 
A33C A48C C71A | < 1e-05 | < 1e-05 |  | 
A14G G35A C71G | < 1e-05 |  |  | 
C34U U47C | < 1e-05 | < 1e-05 |  | < 1e-05
U31C G37A G44U A48U C50A U65G | < 1e-05 |  |  | 
C8G G32U | < 1e-05 | < 1e-05 |  | 
A36U A53U U65A | < 1e-05 | < 1e-05 |  | 
U30G A42G G66A C71A | 0.00018 ± 5.9e-05 | 0.000159 ± 4.2e-05 |  | 
C11U G35U C68G C70A | 0.000984 ± 0.00032 |  |  | 
G32A C50U C70G | 0.000126 ± 4.6e-05 |  |  | 
A15G G29A A42C | < 1e-05 |  |  | 
A33C G44C C58U C61A | < 1e-05 | < 1e-05 |  | 
